Results from paper PMC8211825, “Molecular mechanism of calcium induced trimerization of C1q-like domain of otolin-1 from human and zebrafish” (Scientific Reports, 2021).
Changes are numbered by the printed parent chain. In names and notes the source's numbering stands. Several values for one entry are separate records, joined by “and”; a condition that tells them apart may be missing. Equal values may be shown once.

B1: C1q-like domain of otolin-1 from human (domain or fragment, UniProt A6NHN0 338-473, looked up)
chain: ARVPRSAFSAGLSKPFPPPNIPIKFEKILYNDQGNYSPVTGKFNCSIPGTYVFSYHITVRGRPARISLVAQNKKQFKSRETLYGQEIDQASLLVILKLSAGDQVWLEVSKDWNGVYVSAEDDSIFTGFLLYPEETS
notes: gC1q (C1q-like) domain of human otolin-1, UniProt A6NHN0; printed monomer MW 17.0 kDa; Subcloned in pQE-80 L; The tag is known only from TALON purification and a 6xHis Western blot; also called hOtolC1q; native hOtolC1q
B2: hOtolC1q E470A (domain or fragment, human, UniProt A6NHN0 338-473, looked up)
chain: B1 chain with E133A
notes: gC1q (C1q-like) domain of human otolin-1, UniProt A6NHN0, natural SNP variant E470A (rs3921595); also called E470A variant; natural variant hOtolC1q E470A; source: 0.1% NP40 substitute added to the cell suspension
B3: C1q-like domain of otolin-1 from zebrafish (domain or fragment)
chain: not shown
notes: gC1q (C1q-like) domain of zebrafish otolin-1, UniProt A5PN28; printed monomer MW 17.1 kDa; Subcloned in pQE-80 L; also called dOtolC1q; native dOtolC1q

Biological target: the molecule itself
Experiment: AUC; sedimentation velocity, c(s) analysis in SEDFIT; 10 mM CaCl2; 10 mM HEPES pH 7.0, 500 mM NaCl, 5% glycerol; 20 °C, 50,000 rpm; protein about 0.1, 0.25 and 0.5 mg/ml; self-association of the gC1q domain into trimers

| Protein | stoichiometry N |
| --- | --- |
| B1 | 3 |
| B2 | 3 |
| B3 | 2 and 3 |
